Molecular target: F-actin (actin purified from chicken breast, polymerized and phalloidin-stabilized) (chicken) (UniProt P68139)
Experiment: co-sedimentation

Row | stoichiometry N | Substance
1 | 1 | 6xHis-FLNaABD-A128V (from UniProt P21333 1-278) (domain or fragment)
2 | 1 | 6xHis-FLNaABD-E254K (domain or fragment)
3 | 1 | 6xHis-FLNaABD-Q170P (from UniProt P21333 1-278) (domain or fragment)
4 | 1 | 6xHis-FLNaABD-wt (human filamin A actin-binding domain, wild type) (from UniProt P21333 1-278) (domain or fragment)

— PMC6173970
